Data: paper PMC9445010

Tests used:
[1] = molecular target: pMMO monomer consisting of PmoA, PmoB, and PmoC (Methylococcus capsulatus (Bath) (endogenous in M. capsulatus (Bath))) (UniProt Q607G3); assay: cryo-EM structure; cryoET with subtomogram averaging of isolated M. capsulatus (Bath) membranes, no detergent; 25 mM PIPES pH 7.3, 250 mM NaCl; single trimer 4.8 Å, 7-particle unit 10 Å, three trimers 12 Å; 3-fold symmetry applied
[2] = molecular target: particulate methane monooxygenase (pMMO) trimer (Methylococcus capsulatus (Bath) (endogenous in M. capsulatus (Bath))) (UniProt Q607G3)

stoichiometry N [1] | methane oxidation activity of SEC fractions with larger pMMO nanodisc arrays against single particle nanodiscs (13C-methanol by GC/MS, duroquinol reductant, 45 °C) [2] | Substance
3 | – | pMMO monomer consisting of PmoA, PmoB, and PmoC (from UniProt Q607G3 1-247; G1UBD1 33-414) (complex)
– | < 3 fold | particulate methane monooxygenase (pMMO) trimer (from UniProt Q607G3 1-247; G1UBD1 33-414) (complex)
